# No end group written: not given here.
# T1: human Y2 receptor (human, UniProt P49146 1-381)
# T1 sequence (looked up): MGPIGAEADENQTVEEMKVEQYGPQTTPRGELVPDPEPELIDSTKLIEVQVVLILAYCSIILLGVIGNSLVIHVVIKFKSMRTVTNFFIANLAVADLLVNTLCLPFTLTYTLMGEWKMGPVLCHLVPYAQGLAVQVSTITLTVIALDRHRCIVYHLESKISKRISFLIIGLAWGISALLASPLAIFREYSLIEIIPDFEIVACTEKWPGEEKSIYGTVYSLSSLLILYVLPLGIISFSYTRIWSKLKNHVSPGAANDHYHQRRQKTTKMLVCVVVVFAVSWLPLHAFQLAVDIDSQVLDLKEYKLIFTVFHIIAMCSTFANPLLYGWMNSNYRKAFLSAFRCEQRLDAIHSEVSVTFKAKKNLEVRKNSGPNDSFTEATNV
# T2: human Y5 receptor (human, UniProt Q15761 1-445)
# T2 sequence (looked up): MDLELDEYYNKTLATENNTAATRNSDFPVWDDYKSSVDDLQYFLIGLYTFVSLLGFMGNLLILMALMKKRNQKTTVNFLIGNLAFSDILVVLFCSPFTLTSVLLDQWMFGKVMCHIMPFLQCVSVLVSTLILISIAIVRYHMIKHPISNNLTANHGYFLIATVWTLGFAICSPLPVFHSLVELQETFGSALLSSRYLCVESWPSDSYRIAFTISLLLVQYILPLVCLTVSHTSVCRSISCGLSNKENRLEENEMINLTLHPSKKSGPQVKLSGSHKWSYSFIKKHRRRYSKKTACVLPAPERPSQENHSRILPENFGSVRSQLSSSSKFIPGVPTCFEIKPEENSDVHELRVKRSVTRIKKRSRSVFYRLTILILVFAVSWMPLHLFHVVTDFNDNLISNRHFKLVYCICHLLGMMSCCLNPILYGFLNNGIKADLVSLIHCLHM
# Legend:
# human Y4 receptor [1] = molecular target: T3, human Y4 receptor (human, UniProt P50391 1-375); test: competition binding, 125I-PP displaced, COS-7 cells with human Y4
# T3 construct: whole, on cells; also called PP receptor
# Procedure: (§1) Transfected COS-7 cells are transferred to culture plates one day after transfection at a density of 40×10^3 cells per well aiming at 5-8% binding of the radioactive ligand. […] Determinations are made in duplicate. Steady state binding is reached with the radioactive ligand under these conditions. EC50 values were calculated using a standard pharmacological data handling software, Prism 3.0 (graphPad Sofware, San Diego, USA).
# human Y4 receptor [2] = molecular target: T3, human Y4 receptor; test: cell-based or functional assay
# human Y2 receptor = molecular target: T1, human Y2 receptor; test: cell-based or functional assay
# human Y5 receptor [3] = molecular target: T2, human Y5 receptor; test: cell-based or functional assay
# human Y5 receptor [4] = molecular target: T2, human Y5 receptor; test: competition binding, 125I-NPY displaced, COS-7 cells with human Y5
# Procedure: as §1
# T3 sequence (P50391 whole entry): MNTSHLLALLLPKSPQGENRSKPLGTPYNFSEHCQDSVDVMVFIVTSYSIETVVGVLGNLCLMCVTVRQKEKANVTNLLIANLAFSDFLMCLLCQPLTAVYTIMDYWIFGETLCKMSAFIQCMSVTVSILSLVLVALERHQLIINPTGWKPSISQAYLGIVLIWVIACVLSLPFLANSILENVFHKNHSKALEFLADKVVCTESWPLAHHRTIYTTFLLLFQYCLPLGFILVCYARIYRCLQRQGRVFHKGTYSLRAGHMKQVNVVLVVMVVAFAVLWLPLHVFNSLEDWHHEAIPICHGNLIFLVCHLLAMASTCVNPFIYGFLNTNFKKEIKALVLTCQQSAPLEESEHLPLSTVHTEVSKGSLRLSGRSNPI
Binder,IC50 (human Y4 receptor [1]) [nM],EC50 (inositol phosphate turnover) (human Y4 receptor [2]) [nM],EC50 (inositol phosphate turnover) (human Y2 receptor) [nM],EC50 (inositol phosphate turnover) (human Y5 receptor [3]) [nM],IC50 (human Y5 receptor [4]) [nM]
"APLKPVYPGDNATPEQMAQYAADLRRYINMLTRQRY-NH2 [[Lys4,Gln34]PP]",6,64,0.17,3.8,0.87
KKKKKKRHYLNLVTRQRY-NH2 (also called [Lys]6-PYY25-36) [Lys-Lys-Lys-Lys-Lys-Lys-PYY25-36],–,–,–,> 1000,429

# From US20090186811A1 (published 2009)
